Data reported in IntAct's records for PubMed 26751641.

Columns and labels:
[1] = target: chd1_human CHD1 (UniProt O14646)
[2] = target: chd1_human CHD1 (UniProt O14646); remark: listed apart in the source

Sequence of UniProt O14646 (O14646 whole entry): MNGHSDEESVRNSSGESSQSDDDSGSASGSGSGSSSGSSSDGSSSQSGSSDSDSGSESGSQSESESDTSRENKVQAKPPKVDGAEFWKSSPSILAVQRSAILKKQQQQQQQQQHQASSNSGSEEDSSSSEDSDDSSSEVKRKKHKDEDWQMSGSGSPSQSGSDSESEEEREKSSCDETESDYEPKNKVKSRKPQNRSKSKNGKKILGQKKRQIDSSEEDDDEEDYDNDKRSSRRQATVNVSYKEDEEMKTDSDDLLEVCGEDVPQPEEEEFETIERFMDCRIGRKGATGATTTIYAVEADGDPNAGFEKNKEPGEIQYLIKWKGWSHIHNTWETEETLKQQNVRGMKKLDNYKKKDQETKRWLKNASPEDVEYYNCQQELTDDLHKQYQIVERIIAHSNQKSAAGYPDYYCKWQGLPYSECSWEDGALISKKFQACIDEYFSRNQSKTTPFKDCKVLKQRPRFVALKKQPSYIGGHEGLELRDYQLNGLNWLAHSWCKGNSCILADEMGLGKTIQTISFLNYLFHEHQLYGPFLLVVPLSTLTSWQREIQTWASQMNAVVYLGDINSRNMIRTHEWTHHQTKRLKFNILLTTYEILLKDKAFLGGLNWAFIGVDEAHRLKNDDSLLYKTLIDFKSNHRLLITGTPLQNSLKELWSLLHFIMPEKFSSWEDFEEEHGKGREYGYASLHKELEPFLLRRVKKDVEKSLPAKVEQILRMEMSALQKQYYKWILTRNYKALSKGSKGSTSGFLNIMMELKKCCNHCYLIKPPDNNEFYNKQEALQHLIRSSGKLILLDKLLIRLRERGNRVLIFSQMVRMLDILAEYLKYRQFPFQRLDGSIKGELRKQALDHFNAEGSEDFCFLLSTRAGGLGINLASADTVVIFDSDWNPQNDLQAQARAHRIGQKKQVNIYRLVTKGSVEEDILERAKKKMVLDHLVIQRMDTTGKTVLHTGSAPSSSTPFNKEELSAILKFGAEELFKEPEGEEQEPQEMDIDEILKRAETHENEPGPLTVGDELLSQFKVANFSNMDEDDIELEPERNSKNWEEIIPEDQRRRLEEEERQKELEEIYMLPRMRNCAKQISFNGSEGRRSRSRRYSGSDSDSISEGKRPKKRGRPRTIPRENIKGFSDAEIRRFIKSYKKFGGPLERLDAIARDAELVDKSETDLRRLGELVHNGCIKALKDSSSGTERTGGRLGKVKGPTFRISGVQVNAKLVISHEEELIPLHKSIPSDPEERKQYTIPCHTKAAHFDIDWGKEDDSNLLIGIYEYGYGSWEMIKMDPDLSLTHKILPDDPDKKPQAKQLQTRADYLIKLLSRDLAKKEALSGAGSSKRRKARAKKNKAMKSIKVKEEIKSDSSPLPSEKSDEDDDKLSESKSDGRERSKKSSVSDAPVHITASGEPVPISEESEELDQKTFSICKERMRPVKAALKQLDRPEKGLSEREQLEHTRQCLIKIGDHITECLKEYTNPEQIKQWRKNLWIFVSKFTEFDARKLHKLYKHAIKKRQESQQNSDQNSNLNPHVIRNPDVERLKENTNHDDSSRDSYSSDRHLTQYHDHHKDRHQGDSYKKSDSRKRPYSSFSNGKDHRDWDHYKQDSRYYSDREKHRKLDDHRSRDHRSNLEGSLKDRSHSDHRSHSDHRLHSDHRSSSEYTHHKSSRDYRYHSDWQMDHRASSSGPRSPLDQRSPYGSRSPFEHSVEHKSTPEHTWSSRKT

Row | Substance | effect of a mutation on the interaction [1] | effect of a mutation on the interaction [2]
1 | Lysine-specific histone demethylase 1A (Homo sapiens) (from UniProt O60341-1) K114A | disrupting interaction strength | –
2 | Lysine-specific histone demethylase 1A (Homo sapiens) (from UniProt O60341-1) R113A | – | disrupting interaction strength
